From US20220096653A1, “CONJUGATE COMPRISING LIGAND AND CEACAM5 ANTIBODY FAB FRAGMENT” (ASTELLAS PHARMA INC., priority 2019, published 2022)

B1: [Gd/DOTA-[2,5-(1,2,3,4-tetrahydroisoquinoline)]-C(═O)-Met-Gly-Lys*-C(═S)-NH-(1,4-Ph)-NH-C(═S)]p-Fab^5 (Fab, V domains shown)
VH: QVQLVQSGAEVKKPGASVKVSCKASGYTFTNYGLSWVRQAPGQGLEWMGENHPGSGIIYHNEKFRGRVTLTADRSTSTAYMELSSLRSEDTAVYYCARSSGTRGFDYWGQGTLVTVSS
VL: DVVMTQTPLSLSVTPGQPASISCRSSQSIVHSNGNTYLEWYLQKPGQSPQLLIYRVSNRFSGVPDRFSGSGSGTDFTLKISRVEAEDVGVYYCFQGSHGPWTFGQGTKLEIKR
modifications: labeling may sit on this chain; sites not stated; labeling portion (MW 1228) on amino groups of the Fab, sites and chain not stated; 1-2 per Fab by MS; Gln 1 pyroglutamic acid as Fab^5 is defined in paragraph 370
B2: Ex-No 103, conjugate of Fab^5 (structure given only as drawing CHEM-US-00162) (Fab, V domains shown)
VH: B1 VH
VL: B1 VL
modifications: labeling may sit on this chain; sites not stated; low molecular weight molecule (MW 1115) bound to the Fab, sites and chain not stated; 1-2 per Fab by MS; Gln 1 pyroglutamic acid as Fab^5 is defined in paragraph 370
B3: Ex-No 102, conjugate of Fab^5 (structure given only as drawing CHEM-US-00161) (Fab, V domains shown)
VH: B1 VH
VL: B1 VL
modifications: labeling may sit on this chain; sites not stated; low molecular weight molecule (MW 1278) bound to the Fab, sites and chain not stated; 1-2 per Fab by MS; Gln 1 pyroglutamic acid as Fab^5 is defined in paragraph 370
B4: Ex-No 109, conjugate of Fab^5 (structure given only as drawing CHEM-US-00166) (Fab, V domains shown)
VH: B1 VH
VL: B1 VL
modifications: labeling may sit on this chain; sites not stated; low molecular weight molecule (MW 1216) bound to the Fab, sites and chain not stated; 1-2 per Fab by MS; Gln 1 pyroglutamic acid as Fab^5 is defined in paragraph 370
B5: (Y-S1-X)p-Fab^2 with Y Gd/4arm-DOTA, S1 spacer (n), X -Met-Gly-Lys*-Z2(#N)- (Fab, V domains shown)
VH: EVQLVESGGGLVQPGGSLRLSCAASGFNIRDTYMHWVRQAPGKGLEWVARIDPANGNSRYVPKFQGRFTISADTSRNTAYLQMNSLRAEDTAVYYCAPFGYYVSDYAMAYWGQGTLVTVSS
VL: DIQLTQSPSSLSASVGDRVTITCRAGESVDIFGVGFLHWYQQKPGKAPKLLIYRASNLESGIPSRFSGSGSRTDFTLTISSLQPEDFATYYCQQTNEDPYTFGQGTKVEIKR
modifications: labeling may sit on this chain; sites not stated; labeling portion (MW 1244) on amino groups of the Fab, sites and chain not stated; 1 per Fab by MS
notes: also called Ex-No 58; conjugate 58
B6: [DFO-C(═O)-(CH2CH2O)4-(1,3-Ph)-C(═O)-Gly-Lys*-Z2(#S)]p-Fab^2 (Fab, V domains shown)
VH: B5 VH
VL: B5 VL
modifications: labeling may sit on this chain; sites not stated; labeling portion (MW 1252) bound via 2-iminothiolane-treated amino groups of the Fab, sites and chain not stated; 1-2 per Fab by MS
notes: No metal; also called Ex-No 61; Conjugate No. 61
B7: (Y-S1-X)p-Fab^2 with Y Gd/4arm-DOTA, S1 spacer (o), X -Met-Gly-Lys*-Z2(#N)- (Fab, V domains shown)
VH: B5 VH
VL: B5 VL
modifications: labeling may sit on this chain; sites not stated; labeling portion (MW 1304) on amino groups of the Fab, sites and chain not stated; 1-2 per Fab by MS
notes: also called Ex-No 59; conjugate 59
B8: (Y-S1-X)p-Fab^2 with Y Gd/DOTA, S1 - (bond), X -Gly-Val-NH-(CH2)2-Z1(#N)- (Fab, V domains shown)
VH: B5 VH
VL: B5 VL
modifications: labeling may sit on this chain; sites not stated; labeling portion (MW 838) on amino groups of the Fab, sites and chain not stated; 1-2 per Fab by MS
notes: also called Ex-No 2; conjugate 2
B9: [DFO-C(═O)-CH2O-(1,3-Ph)-C(═O)-Gly-Tyr*-CH2-C(═O)-NH-(CH2)2-Z1(#S)]p-Fab^2 (Fab, V domains shown)
VH: B5 VH
VL: B5 VL
modifications: labeling may sit on this chain; sites not stated; labeling portion (MW 1241) bound via 2-iminothiolane-treated amino groups of the Fab, sites and chain not stated; 1 per Fab by MS; free thiols capped with 2-iodoacetamide
notes: No metal; also called Ex-No 60; Conjugate No. 60
B10: (Y-S1-X)p-Fab^2 with Y Gd/DOT[A], S1 - (bond), X -Gly-Ile-NH-(CH2)2-Z1(#N)- (Fab, V domains shown)
VH: B5 VH
VL: B5 VL
modifications: labeling may sit on this chain; sites not stated; labeling portion (MW 852) on amino groups of the Fab, sites and chain not stated; 1-3 per Fab by MS
notes: also called Ex-No 3; conjugate 3
B11: (Y-S1-X)p-Fab^2 with Y Gd/DOTA, S1 - (bond), X -Gly-Tyr*-CH2-C-(═O)-Lys*-Z2(#N)- (Fab, V domains shown)
VH: B5 VH
VL: B5 VL
modifications: labeling may sit on this chain; sites not stated; labeling portion (MW 1046) on amino groups of the Fab, sites and chain not stated; 1-3 per Fab by MS
notes: also called Ex-No 4; conjugate 4
B12: (Y-S1-X)p-Fab^2 with Y Gd/DOTA, S1 - (bond), X -Gly-Lys*-Z2(#S)- (Fab, V domains shown)
VH: B5 VH
VL: B5 VL
modifications: labeling may sit on this chain; sites not stated; labeling portion (MW 926) on amino groups of the Fab, sites and chain not stated; 1-2 per Fab by MS
notes: also called Ex-No 5; conjugate 5
B13: (Y-S1-X)p-Fab^2 with Y DFO, S1 -C(═O)-(1,3-Ph)-C(═O)-, X -Gly-Lys*Z2(#S)- (Fab, V domains shown)
VH: B5 VH
VL: B5 VL
modifications: labeling may sit on this chain; sites not stated; labeling portion (MW 1076) on amino groups of the Fab, sites and chain not stated; 1-3 per Fab by MS
notes: No metal; also called Ex-No 64; conjugate 64

Assays:
[1] = molecular target: human cancer-specific MUC1 peptide (PTL 1) (human); assay: ELISA on immobilised human cancer-specific MUC1 peptide, 4-parameter fit, duplicate (Example 6-2)
[2] = molecular target: T1, CEACAM5 (R&D Systems, 4128-CM-050) (human, UniProt P06731 35-685); assay: ELISA on immobilised CEACAM5, 4-parameter fit, duplicate
T1 construct: Immobilised on the ELISA plate; also called human CEACAM5
T1 sequence (looked up): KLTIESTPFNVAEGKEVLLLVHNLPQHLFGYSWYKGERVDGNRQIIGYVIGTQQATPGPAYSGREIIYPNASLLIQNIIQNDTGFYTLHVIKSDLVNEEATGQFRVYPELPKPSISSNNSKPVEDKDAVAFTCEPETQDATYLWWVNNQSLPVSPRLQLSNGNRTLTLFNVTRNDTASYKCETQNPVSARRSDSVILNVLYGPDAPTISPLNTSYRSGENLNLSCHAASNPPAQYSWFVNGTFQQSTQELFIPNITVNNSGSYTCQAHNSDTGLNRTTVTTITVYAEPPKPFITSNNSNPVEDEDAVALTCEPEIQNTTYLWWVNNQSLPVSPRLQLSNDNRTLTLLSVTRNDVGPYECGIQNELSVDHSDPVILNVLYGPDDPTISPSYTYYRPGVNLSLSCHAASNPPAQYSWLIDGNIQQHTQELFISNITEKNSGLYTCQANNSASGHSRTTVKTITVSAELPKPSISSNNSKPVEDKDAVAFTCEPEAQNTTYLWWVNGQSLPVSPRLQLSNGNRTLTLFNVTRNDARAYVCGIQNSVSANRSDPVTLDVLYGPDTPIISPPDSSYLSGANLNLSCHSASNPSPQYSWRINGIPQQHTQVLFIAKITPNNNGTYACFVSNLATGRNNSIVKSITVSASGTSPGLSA
Procedure, shortened: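 CEACAM5 immobilised at 0.1 μg/mL in 10 mM phosphate pH 7.2 overnight at 4° C, blocked with 5% BSA; Fab conjugates from about 10000 ng/mL in 14 threefold steps, 60 min at RT. HRP anti-human IgG (H+L) then ECL chemiluminescence; EC₅₀ by 4-parameter logistic fit, duplicates.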

Binder	EC50 [1] [nM]	EC50 [2] [nM]
B1	0.19	
B2	0.08	
B3	0.07	
B4	0.08	
B5		0.28
B6		0.18
B7		0.3
B8		0.14
B9		0.18
B10		0.13
B11		0.15
B12		0.14
B13		0.2
